Reference: patent publication US20220281980A1
Where “and” joins values, the source holds several entries; their conditions need not be identical. Identical values can stand only once.

B1: 19G6 (antibody, V domains shown)
VH: QVQLVESGGGVVQPGRSLRLSCAASGFTFSNYAMHWVRQAPGEGLEWVALIWYDGSNKFYGDSVKGRFTISRDNSKNTLYLQMNSLSAEDTAVYYCAREGSGHYWGQGTLVTVSS
VL: AIQLTQSPSSLSASVGDRVTITCRASQGISSALAWYQQKPGKVPKSLIYDASSLESGVPSRFSGSGSGTDFTLTISSLQPEDFATYYCQQFNSYPITFGQGTRLEIK
B2: 16A5 (antibody, V domains shown)
VH: QVQLVESGGDVVQPGRSLRLSCAASGFTFSNYNIHWVRQAPGKGLEWVAVIRYDGINKYYADSVKGRFIISRDNSKNTLYLQMNSLRAEDTAVYYCASGPPDAFNIWGQGTMVTVSS
VL: B1 VL
B3: MICA.36 (antibody, V domains shown)
VH: B1 VH
VL: B1 VL

Key:
[1] = biological target: human MICA/B endogenously expressed on A2058 cells (MICA alleles *008/*018) (human) (UniProt Q29983); test: flow cytometry, tumor cells with endogenous MICA/B
[2] = biological target: overexpressed human MICA*008 and MICB*005 on CHO cells; test: Scatchard analysis, 125I-MICA.36 on transduced CHO cells
[3] = biological target: overexpressed cyno MICA/B (CHO clones #4 and #6); test: as above

Binder	EC50 [1]	Kd [2]	Kd [3]
B1	5.39 nM		
B2	7.68 nM and 10.9 nM		
B3		1 to 2 nM	5 to 11 nM
